# Data reported in the nanobody polyreactivity screen of Harvey et al. (2022).
# Assay: yeast display, Sf9 membrane polyspecificity reagent, FACS + sequencing; frameworks hold sequencing errors
# Outline: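 In a synthetic yeast display library (Saccharomyces cerevisiae BJ5465), nanobody expression was induced with galactose for 36–48 hours. FACS gates were set low and high (top ~1%) using anti-HA fluorescence for expression and streptavidin fluorescence for binding of the Sf9 membrane reagent. Each polyreactivity label is drawn from the gate of origin.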
row,Sequence,polyreactivity (PSR sort gate)
1,QVQLVESGGGLVQAGGSLRLSCAASGSIFYSNTMGWYRQAPGKERELVAAISRGGSTYYADSVKGRFTISRENAKNTVYLQMNSLKPEDTAVYYCAARYRWAPAYDYWGQGTQVTVSS,high polyreactivity
2,QVQLVESGGGLVQAGGSLRLSCAASGSIFYSNVMGWYRQAPGKERELVAAIRYSGVGTYYADSVKGRFTISRDNAKNTVYLQMNSLKPEDTAVYYCNAVTKVGYLRRRDYWGQGTQVTVSS,low polyreactivity
3,QVQLVESGGGLVQAGGSLRLSCAASGSIFYSYAMGWYRQAPGTERELVAAISWDASTYYADSVKGRFTISRDNAKNTVYLQMNSLKPEDTAVYYCNADIPYYFVYDAYDYWGQGTQVTVSS,low polyreactivity
4,QVQLVESGGGLVQAGGSLRLSCAASGSIFYSYTMGWYRQAPGKEMELVAAINSGGSTYYADSVKGRFTISRDNAKNTVYLQMNSLKREDTAVYYCAARRTTSSGGYYYWGQGTQVTVSS,high polyreactivity
5,QVQLVESGGGLVQAGGSLRLSCAASGSIFYTNAKGWYRPAPGKERELVAAISYGGTTTYADSVKGRFTISRDNAKNTVYLQMNSLIPEDTAVYYCNADWLYYGYWGYGHIWYDFWGQGTQVTVSS,low polyreactivity
6,QVQLVESGGGLVQAGGSLRLSCAASGSIFYTNALGWSRQARGKERELVAAMSISGSTYYADSVKGRFTISRDNAKNTVYLQMNSLKPEDTAVYYCAAGPGYVRYPRSGVWYVTLYDYWGQGTQVTVSS,high polyreactivity
7,QVQLVESGGGLVQAGGSLRLSCAASGSIFYTNAMGWYRQAPGKERELVAAIRKSGGSTYYADSVKGRFTISRDNAKNTVYLQMNSLKPEDTAVYYCNKLYRVPQDLHDYWGQGTQVTVSS,high polyreactivity
8,QVQLVESGGGLVQAGGSLRLSCAASGSIFYTYAMGGYRPAPGKERELVAAISSGGSTTYADSVKGRFTISRDNAKNTVYLQMTSLKPEDTAVYYCNTSYRKKKRYYYWGQGTQVTVSS,high polyreactivity
9,QVQLVESGGGLVQAGGSLRLSCAASGSIFYTYAMGWYRQAPGKERELVADITTNGGNTYYADSVKGRFTISRDNAKNTVYLQMNSLKPEDTAVYYCARDRYDEPDEGDYDYWGQGTQVTVSS,low polyreactivity
10,QVQLVESGGGLVQAGGSLRLSCAASGSIFYTYVMGWYRQAPGKERELVAAISASGVRTYYADSVKGRFTISRDNAKNTVYLQMNSLKPEDTAVYYCAADRQRADYYWGQGTQVTVSS,high polyreactivity
11,QVQLVESGGGLVQAGGSLRLSCAASGSIFYTYVMGWYRQAPGKERELVAAISASGVRTYYADSVKGRFTISRDNAKNTVYLQMNSLKPEDTAVYYCAARYATWYFRRGRKTSDYDYWGQGTQVTVSS,high polyreactivity
12,QVQLVESGGGLVQAGGSLRLSCAASGSIFYVNAMGWYRQAPGKERELVAAISVRGGRTYYADSVKGRFTISRDNAKNTVYLQMNILNPEDTAVYYCATRISTVGRYDYWGEGTQVTVSS,high polyreactivity
13,QVQLVESGGGLVQAGGSLRLSCAASGSIFYVNGMGWYRQAPGKEREFVARITLSGTSTYYADSVKGRFTISRDNAKNTVYLQMNSLKPEDTAVSYCAAPYFTYGQDDDDYWGQGTQVTVSS,low polyreactivity
14,QVQLVESGGGLVQAGGSLRLSCAASGSIFYVYAMGGYRQAPGKERELVAAISRRGARTYYADSVKGRFTISRDNAKNTVYLQMNSLKPEDTAVYYCNADQYYTVGYSAEYEYWGQGTQVTVSS,low polyreactivity
15,QVQLVESGGGLVQAGGSLRLSCAASGSIFYVYAMGWYRQAPGKERELVAAISDDGDTYYADSVKGRFTISRDNAKNTVYLQMNSLNPEDTAVYYCAAEGGANEENSSPEYDYWGQGTQVTVSS,low polyreactivity
16,QVQLVESGGGLVQAGGSLRLSCAASGSIFYVYAMGWYRQAPGKERELVAAITNYADSVKGRFTISRDNAKNTVYLQMNSQKPPDTAVYYCAADWWRVEMDYWGQGTQVTVSS,low polyreactivity
17,QVQLVESGGGLVQAGGSLRLSCAASGSIFYVYAMGWYRQAPGKERELVAAITSSGTTNYADSVKGRLTISRDNAKNTVYLQMNSLKPEDTAVYYCAADPDSGQVPFDYWGQGTQVTVSS,low polyreactivity
18,QVQLVESGGGLVQAGGSLRLSCAASGSIFYVYAMGWYRQAPGKERELVAAITWSGGSTYYADSVKGRFTISRDNAKNTVYLQMNSLKPEDTAVYYCAADEGYDYPYYYWGQGTQVTVSS,high polyreactivity
19,QVQLVESGGGLVQAGGSLRLSCAASGSIFYVYAMGWYRQAPGKERELVASINKSGGSTYYADSVKGRFTISRDNAKNTVYLQMNSLKPEDTAVYYCAARTGWPRVGFQYPAHVGFDYWGQGTQVTVSS,low polyreactivity
20,QVQLVESGGGLVQAGGSLRLSCAASGSIFYVYAMGWYRQAPGKERELVASIRWIGDRTYYADSVKGRFTISRDNAKNTVYLQMNSLKPEDTAVYYCAADPRYYGYYYLTPRYYYWGQGTQVTVSS,high polyreactivity
21,QVQLVESGGGLVQAGGSLRLSCAASGSIFYVYAMVWYRQAPGKEREFVASIRTSGSSTYADSVKGRFTISRDNAKNTVYLQMNSLKPEDTAVYYCAAGSITVFWKRTGYRWRGYDYWGQGTQVTVSS,low polyreactivity

row,Sequence,polyreactivity (PSR sort gate)
1,QVQLVESGGGLVQAGGSLRLSCAASGSIFYVYGMGWYRQAPGKERELVARITDSGGSTSYADSVKGRFTISRDNAKNTVYLQMNSLKPEDTAVYYCAAYVRPWYNYWGQGTQVTVSS,low polyreactivity
2,QVQLVESGGGLVQAGGSLRLSCAASGSIFYVYTMGWYRQAPGKERELVAAITVSGGRTYYADSVKGRFTISRDNAKNTVYLQLNSLKPEDTAVYYCAADTAWPYYIYWSYDYWGQGTQVTVSS,low polyreactivity
3,QVQLVESGGGLVQAGGSLRLSCAASGSIFYWNAMGWYRQAPGKERELVAAINYSGDSTYYADSVKGRFTISRDNAKNTVYLQMNSLKPEDTAVYYCNFDYWGQGTQVTVSS,low polyreactivity
4,QVQLVESGGGLVQAGGSLRLSCAASGSIFYWYALGWYRQAPGKERELVAAITYSGDRTYYADSVKGRFTISRDNAKNTVYLQMNSLKPEVTAVYYCAKDRGSGPLDYWGQGTQVTVSS,low polyreactivity
5,QVQLVESGGGLVQAGGSLRLSCAASGSIFYWYAMGWYRQAPGKERELVAAISRNGGNTYYADSVKGRFTISRDNAKNTVYLQMNSLKPEDTAVYYCAAQLFVRRWMDYWGQGTQVTVSS,low polyreactivity
6,QVQLVESGGGLVQAGGSLRLSCAASGSIFYWYAMGWYRQAPGKERELVASITTAGSTYYADSVKGRFTISRDNAKNTVYLQMNSLKPEDTAVYYCNTVPYGYHGYLYLYTYGYWGQGTQVTVSS,high polyreactivity
7,QVQLVESGGGLVQAGGSLRLSCAASGSIFYWYAMGWYRQAPGKERELVATITRGGSTNYADSVKGRFTISRDNAKNTVYLQMNSLKPEDTAVYYCAAQRVGHKRSTKLDYWGQGTQVTVSS,low polyreactivity
8,QVQLVESGGGLVQAGGSLRLSCAASGSIFYWYAMGWYRQAPGKERELVAVISSGGSTYYADSVKGRFTISRDNAKNTVYLQMNSLKPEDTAVYYCNAGPLRSGRYTYYYWGQGTQVTVSS,low polyreactivity
9,QVQLVESGGGLVQAGGSLRLSCAASGSIFYWYDMGWYRHAPGKEWELVAAISFNVGSTYADSVKGRFTISRDNAKNTFYLQMNSLKPEDTAVYYCNVDAYRTSYEADVYYYTWIYYWGQGTQVTVSS,low polyreactivity
10,QVQLVESGGGLVQAGGSLRLSCAASGSIFYYAMGWYREAPGKERELVAAISRSGGSTYYADSVKGRFTISRDNAKNTVYLQMNSLKPEDTAVYYCAKGYRGYSYGYWRQGTQVTVSS,high polyreactivity
11,QVQLVESGGGLVQAGGSLRLSCAASGSIFYYAMGWYRQAPWKERELVADISTGGSTHYADSVKGRFTISRDNAKNTVYLQMNSLKPEDTAVYYCAKEAWRYRLNFRYNYWGQGTQVTVSS,low polyreactivity
12,QVQLVESGGGLVQAGGSLRLSCAASGSIFYYAMGWYRQATGKERELVAAITTGDGTNYADSVKGRFTISRDNAKNTVYLQMNSLKPEDTAVYYCAKSTYKPYYYYFPYDYWGQGTQVTVSS,low polyreactivity
13,QVQLVESGGGLVQAGGSLRLSCAASGSIFYYNAMGWYRPAPGKERELVADISTSGSTYYADSVKGRFTISRDNAKNTVYLQMNSLKPEDTAVYYCNADYLPQEGEFSYPYDYWGQGTQVTVSS,low polyreactivity
14,QVQLVESGGGLVQAGGSLRLSCAASGSIFYYNAMGWYRQPPGKERELVAAISWSGDSTYYADSVKGRFTISRDNAKNTVYLQMNSLKPEDTAVYYCNTELVPWTEYWYDYWGQGNQVTVSS,low polyreactivity
15,QVQLVESGGGLVQAGGSLRLSCAASGSIFYYNARGGYRQAPGKERELVATIRTSGGSTYYADSVKGRFTISRDNAMNTVYVQLNSLKPEDTAVYYCAARDLRKLYSRYPYYYWGQGTQVTVSS,high polyreactivity
16,QVQLVESGGGLVQAGGSLRLSCAASGSIFYYNTMGWYRQAPGKERELVAAISWSGGSTSYADSVKGRFTISRDNAKNTVYLQMNSLKPEDTAVYYCAAKAVGLGKSWRGDDYWGQGTQVTVSS,low polyreactivity
17,QVQLVESGGGLVQAGGSLRLSCAASGSIFYYNTMGWYRQAPGKERELVAAISWSGGSTSYADSVKWRFTISRDNAKNTVYLQMNSLKPEDTAVYYCNVDYGVHVPPRDYWGQGTQVTVSS,low polyreactivity
18,QVQLVESGGGLVQAGGSLRLSCAASGSIFYYYAMGCYTQAPGKERELVAAITSGGSTYYADSVNGRFTISRDNAKNSGYLQMNSLKPEDTAVYYCNNAFPYFDDYWGQGTQVTVSS,low polyreactivity
19,QVQLVESGGGLVQAGGSLRLSCAASGSIFYYYAMGWDRQENGKESELVAAIDWDGGTTYYADSVMGLFTISRDNAKNTVYLQMNSLKPEDTAVFYCAGEVLYGPGGGYEYWGQGTQVTVSS,high polyreactivity
20,QVQLVESGGGLVQAGGSLRLSCAASGSIFYYYAMGWYRQAPGKERELVAAITRSGSSTYYADSVKGRFTISRDNAKNTVYLQMNSLKPEDTAVYYCAAKSKRGSRYDSWGQGTQVTVSS,high polyreactivity
